{"source": "paper PMC5552922", "key": {"[1]": {"target": "T1, DdrOC cleaved by IrrE (Deinococcus deserti) (UniProt C1CYP4)", "T1 sequence": "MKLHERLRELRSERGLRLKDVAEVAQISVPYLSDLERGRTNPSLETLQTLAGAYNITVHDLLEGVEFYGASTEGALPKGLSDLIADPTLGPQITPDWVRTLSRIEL", "assay": "EMSA", "details": "EMSA: 10 mM Tris-HCl pH 7.4, 60 mM NaCl, 1 mM DTT, 5% glycerol, 200 ng DNA in 20 ul, 30 min room temperature; 5% PAGE in TAE at 4 C, ethidium bromide"}, "[2]": {"target": "T2, DdrOC (DdrO) (Deinococcus deserti) (UniProt C1CYP4)", "T2 sequence": "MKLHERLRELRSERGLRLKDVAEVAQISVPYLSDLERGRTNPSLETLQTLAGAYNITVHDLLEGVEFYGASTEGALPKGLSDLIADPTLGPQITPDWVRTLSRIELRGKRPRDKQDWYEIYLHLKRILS", "assay": "EMSA", "details": "EMSA: 10 mM Tris-HCl pH 7.4, 60 mM NaCl, 1 mM DTT, 5% glycerol, 200 ng DNA in 20 ul, 30 min room temperature; 5% PAGE in TAE at 4 C, ethidium bromide"}}, "data": [{"sequence": "TATAGGTACCGGTACTCCTTCCTGTCCGACAGCAGACAGCGAGGCAAAGCATGAATAGTCGGTCTTAAGGGGGTAAAAGCCTTCTTGATTACGATCATAGCAGATCGTCTCGTGGTGGGCAAGAAGAACTCCTCTCTATTCTGTATTGACCGTACCGGGAAGCGGTGTTACACTCCAACCAAGGGTGCCCGATTCTGCCTACAGGCAAACGCTCCCCCAGGCGGCCCGCCCGGTCAGCGCACAGTCCCGGTCGCTCAAAGCTGCAGTATC (double strand) [ddrOC-ddrQ intergenic region]", "values": [{"measurement": "binding", "setting": "[1]", "value": "no binding"}, {"measurement": "binding", "setting": "[2]", "value": "binds"}]}]}
